Assay results as given in article PMC4980823 (Science (New York, N.Y.), 2016).
Read-outs that look alike come from different tables or passages of the source. Values belong to the binder of their own block, whether it stands above or below them.

B2: Rpn1 (412–625) (domain or fragment, yeast, UniProt P38764 412-625, looked up)
chain: GDGMTSAVASIGSIYQWNLDGLQQLDKYLYVDEPEVKAGALLGIGISASGVHDGEVEPALLLLQDYVTNPDTKISSAAILGLGIAFAGSKNDEVLGLLLPIAASTDLPIETAAMASLALAHVFVGTCNGDITTSIMDNFLERTAIELKTDWVRFLALALGILYMGQGEQVDDVLETISAIEHPMTSAIEVLVGSCAYTGTGDVLLIQDLLHRLT

Columns and labels:
[1] = biological target: B2; test: ITC
[2] = biological target: T1, ubiquitin (UniProt P0CG48 1-76); test: NMR titration
[3] = biological target: the molecule itself; test: dynamic light scattering
[4] = biological target: T1, ubiquitin; test: NMR titration; remark: listed apart in the source

Kd [1]: 64 ± 25 nM
B1: Rad23 UBL domain (amino acids 1–78) (domain or fragment, yeast, UniProt P32628 1-78, looked up)
chain: MVSLTFKNFKKEKVPLDLEPSNTILETKTKLAQSISCEESQIKLIYSGKVLQDSKTVSECGLKDGDQVVFMVSQKKST

Binder: B2
binding result [2]: binds
binding result [3]: binds

binding result [4]: binds
B3: Rpn13 Pru domain (amino acids 1–150), no substitutions (domain or fragment, yeast, UniProt O13563 1-150, looked up)
chain: MSMSSTVIKFRAGVCEYNEDSRLCTPIPVQGEIEIKPNEEEELGFWDFEWRPTEKPVGRELDPISLILIPGETMWVPIKSSKSGRIFALVFSSNERYFFWLQEKNSGNLPLNELSAKDKEIYNKMIGVLNNSSESDEEESNDEKQKAQDV
